# Source: the supplement of paper PMC9112550, “Optimization of the antimicrobial peptide Bac7 by deep mutational scanning” (BMC Biology, 2022)
# System: Escherichia coli TOP10
# Experiment: shrunken log2 fold change of peptide-encoding DNA abundance (4.5 h post-induction vs induction); higher = less antimicrobial activity (less host growth inhibition)
# Conditions: time post-induction: 4.5 h; library: site-saturation at positions 5, 18, 19, 20
# 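Note: peptides expressed intracellularly from a pBAD plasmid library in pooled LB shake-flask culture, induced with 0.3% L-arabinose, DNA abundance read by NGS, three biological replicates, DESeq2 with apeglm shrinkage.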
row,Sequence,shrunken log2 fold change
1,RRIRSRPPRLPRPRPRPEHCPRP,-0.0141
2,RRIRCRPPRLPRPRPRPWNIPRP,0.0152
3,RRIRSRPPRLPRPRPRPCDKPRP,-0.324
4,RRIRQRPPRLPRPRPRPMCSPRP,-0.000965
5,RRIRARPPRLPRPRPRPTFHPRP,0.177
6,RRIRSRPPRLPRPRPRPPGKPRP,-0.0498
7,RRIRPRPPRLPRPRPRPVGLPRP,0.478
8,RRIRVRPPRLPRPRPRPKARPRP,0.295
9,RRIRTRPPRLPRPRPRPYAPPRP,-1.07
10,RRIRWRPPRLPRPRPRPAPIPRP,0.319
11,RRIRRRPPRLPRPRPRPIQIPRP,-0.00118
12,RRIRKRPPRLPRPRPRPDDEPRP,0.143
13,RRIRKRPPRLPRPRPRPGLEPRP,1.18
14,RRIRERPPRLPRPRPRPMGQPRP,-0.0667
15,RRIRTRPPRLPRPRPRPYHYPRP,-0.185
16,RRIRARPPRLPRPRPRPKNMPRP,-0.191
17,RRIRFRPPRLPRPRPRPFNPPRP,-0.733
18,RRIRCRPPRLPRPRPRPWWGPRP,0.0769
19,RRIRYRPPRLPRPRPRPIGGPRP,-0.4
20,RRIRIRPPRLPRPRPRPMYQPRP,-0.862
21,RRIRLRPPRLPRPRPRPTCQPRP,0.0421
22,RRIRYRPPRLPRPRPRPDAIPRP,-0.224
23,RRIRARPPRLPRPRPRPICHPRP,0.0398
24,RRIRCRPPRLPRPRPRPMDAPRP,-0.0146
25,RRIRNRPPRLPRPRPRPTPHPRP,0.284

row,Sequence,shrunken log2 fold change
1,RRIRRRPPRLPRPRPRPLSYPRP,-0.0226
2,RRIRIRPPRLPRPRPRPGGCPRP,0.0544
3,RRIRERPPRLPRPRPRPTGEPRP,-0.0152
4,RRIRLRPPRLPRPRPRPPRFPRP,0.209
5,RRIRRRPPRLPRPRPRPPSTPRP,0.585
6,RRIRVRPPRLPRPRPRPMANPRP,0.146
7,RRIRIRPPRLPRPRPRPHVGPRP,-0.0138
8,RRIRKRPPRLPRPRPRPQNIPRP,-0.21
9,RRIRFRPPRLPRPRPRPSSHPRP,-0.682
10,RRIRRRPPRLPRPRPRPFASPRP,-0.0314
11,RRIRFRPPRLPRPRPRPHFNPRP,-0.692
12,RRIRWRPPRLPRPRPRPMNEPRP,0.0689
13,RRIRFRPPRLPRPRPRPGMYPRP,-0.076
14,RRIRARPPRLPRPRPRPWMFPRP,-0.0244
15,RRIRFRPPRLPRPRPRPSLWPRP,0.29
16,RRIRARPPRLPRPRPRPINIPRP,-0.334
17,RRIRHRPPRLPRPRPRPTSWPRP,0.091
18,RRIRGRPPRLPRPRPRPLEWPRP,1.03
19,RRIRCRPPRLPRPRPRPFQHPRP,-0.221
20,RRIRPRPPRLPRPRPRPNYTPRP,-0.679
21,RRIRARPPRLPRPRPRPCWAPRP,0.119
22,RRIRDRPPRLPRPRPRPNCEPRP,0.133
23,RRIRWRPPRLPRPRPRPPYKPRP,-0.249
24,RRIRVRPPRLPRPRPRPWQPPRP,0.146
25,RRIRPRPPRLPRPRPRPRIDPRP,-0.0848

row,Sequence,shrunken log2 fold change
1,RRIRPRPPRLPRPRPRPYTQPRP,-0.608
2,RRIRLRPPRLPRPRPRPHDAPRP,-0.0938
3,RRIRWRPPRLPRPRPRPTLSPRP,0.3
4,RRIRNRPPRLPRPRPRPWGYPRP,-0.123
5,RRIRFRPPRLPRPRPRPGRDPRP,0.0984
6,RRIRFRPPRLPRPRPRPGSYPRP,-0.0318
7,RRIRRRPPRLPRPRPRPFPDPRP,0.255
8,RRIRTRPPRLPRPRPRPPERPRP,0.351
9,RRIRDRPPRLPRPRPRPICTPRP,0.198
10,RRIRIRPPRLPRPRPRPYQSPRP,-0.0409
11,RRIRVRPPRLPRPRPRPAKCPRP,0.0602
12,RRIRIRPPRLPRPRPRPMYKPRP,-1.13
13,RRIRTRPPRLPRPRPRPYWEPRP,-0.0372
14,RRIRMRPPRLPRPRPRPAAYPRP,0.206
15,RRIRHRPPRLPRPRPRPYSCPRP,-0.0837
16,RRIRNRPPRLPRPRPRPITVPRP,-0.0598
17,RRIRSRPPRLPRPRPRPAMCPRP,-0.185
18,RRIRVRPPRLPRPRPRPMKKPRP,0.0174
19,RRIRVRPPRLPRPRPRPSFGPRP,-0.463
20,RRIRIRPPRLPRPRPRPKWNPRP,-0.454
21,RRIRCRPPRLPRPRPRPSEWPRP,-0.214
22,RRIRTRPPRLPRPRPRPGVPPRP,0.202
23,RRIRYRPPRLPRPRPRPEEYPRP,-0.255
24,RRIRSRPPRLPRPRPRPMHVPRP,-0.00553
25,RRIRPRPPRLPRPRPRPCQNPRP,-0.0169

row,Sequence,shrunken log2 fold change
1,RRIRPRPPRLPRPRPRPTNWPRP,0.214
2,RRIRNRPPRLPRPRPRPPFTPRP,0.0907
3,RRIRGRPPRLPRPRPRPLTDPRP,0.284
4,RRIRYRPPRLPRPRPRPDQYPRP,-0.292
5,RRIRRRPPRLPRPRPRPSLEPRP,0.232
6,RRIRRRPPRLPRPRPRPNIRPRP,-0.144
7,RRIRTRPPRLPRPRPRPMNDPRP,-0.0997
8,RRIRHRPPRLPRPRPRPTCKPRP,-0.015
9,RRIRHRPPRLPRPRPRPDNLPRP,0.0139
10,RRIRCRPPRLPRPRPRPSKLPRP,-0.674
11,RRIRTRPPRLPRPRPRPVVCPRP,0.0187
12,RRIRIRPPRLPRPRPRPDTFPRP,-0.364
13,RRIRKRPPRLPRPRPRPMITPRP,-0.278
14,RRIRNRPPRLPRPRPRPSKYPRP,-0.532
15,RRIRQRPPRLPRPRPRPRTRPRP,0.225
16,RRIRERPPRLPRPRPRPTILPRP,-0.0814
17,RRIRARPPRLPRPRPRPESQPRP,0.454
18,RRIRERPPRLPRPRPRPGWHPRP,0.027
19,RRIRFRPPRLPRPRPRPMFFPRP,-0.549
20,RRIRWRPPRLPRPRPRPQTWPRP,0.223
21,RRIRVRPPRLPRPRPRPQDTPRP,-0.64
22,RRIRYRPPRLPRPRPRPGVWPRP,0.171
23,RRIRPRPPRLPRPRPRPWKPPRP,-0.149
24,RRIRRRPPRLPRPRPRPNPVPRP,0.123
25,RRIRRRPPRLPRPRPRPEITPRP,0.0455

row,Sequence,shrunken log2 fold change
1,RRIRERPPRLPRPRPRPGQTPRP,-0.0328
2,RRIRMRPPRLPRPRPRPYRRPRP,0.0224
3,RRIRYRPPRLPRPRPRPCMTPRP,-0.34
4,RRIRFRPPRLPRPRPRPPHMPRP,-0.137
5,RRIRNRPPRLPRPRPRPAFGPRP,-0.189
6,RRIRPRPPRLPRPRPRPAHKPRP,-0.46
7,RRIRGRPPRLPRPRPRPCFKPRP,0.00363
8,RRIRLRPPRLPRPRPRPIEVPRP,0.434
9,RRIRRRPPRLPRPRPRPGYCPRP,-0.0631
10,RRIRGRPPRLPRPRPRPYMPPRP,-0.191
11,RRIRNRPPRLPRPRPRPARQPRP,0.304
12,RRIRIRPPRLPRPRPRPNGQPRP,-0.0848
13,RRIRGRPPRLPRPRPRPCPRPRP,0.23
14,RRIRLRPPRLPRPRPRPGQNPRP,-0.18
15,RRIRCRPPRLPRPRPRPPTDPRP,0.298
16,RRIRYRPPRLPRPRPRPLREPRP,0.483
17,RRIRYRPPRLPRPRPRPMLMPRP,-0.13
18,RRIRIRPPRLPRPRPRPWMKPRP,-0.305
19,RRIRRRPPRLPRPRPRPMASPRP,-0.00822
20,RRIRLRPPRLPRPRPRPCPCPRP,-0.0536
21,RRIRSRPPRLPRPRPRPWSPPRP,-0.1
22,RRIRTRPPRLPRPRPRPDFHPRP,-0.336
23,RRIRKRPPRLPRPRPRPAWDPRP,0.497
24,RRIRRRPPRLPRPRPRPSSLPRP,-0.134
25,RRIRMRPPRLPRPRPRPQNVPRP,-0.0183
